This data set deals with the molecule itself. The data set is described as follows: cryo-EM structure.

The results in this text go back to article PMC8808176 (The Journal of Biological Chemistry, 2021).

What is called stoichiometry N is a count of units in the complex or per binding partner.

B1: full-length mouse TRPML2 (mmTRPML2) with N-terminal maltose-binding protein (natural protein, UniProt Q8K595-1 1-566, looked up)
chain: MPGDEETLDLPAWNRVPDLTWGPHHRSAMASLDSEVREECLREDLKFYFMSPCEKYRARRQIPWKLGLQILKIVMVTTQLVRFGLSNQLVVAFKEDNTVAFKHLFLKGFSGVDEDDYSCSIYTQENTYESIFFAIKQYRHLKNISLATLGYGESEDNRTGLKVCKQHYKTGAMFSSNETLNIDSDIETDCIHLDLQVLTTEPEDWAQTSFFRLDFYRLVQVDISFALKGIDLQAVHSREIPDCYLFQNTITFDNTAHSGKIKIYLNSEANIEECKNMNISGSTQRSTHYLLVFDVFVIMICLASLILCTRSIVLALRLRKRFLNFFLEKYKQRVCGADQWEFVNGWYVLVTISDLMTIIGSILKMEIKAKKLTNYDVCSILLGTSTLFVWVGVIRYLGYFQTYNVLILTMQASLPKVLRFCACAGMIYLGYTFCGWIVLGPYHEKFENLNIVAECLFSLVNGDDMFATFAQIQQKSILVWLFSRLYLYSFISLFIYMVLSLFIALITDSYHTIKKYQQHGFPETDLQKFLKESGSKDGYQKQPSALLSCLCCLRRRRSNDHLILID
B1: the “stoichiometry N” value was 4.
